# B1: SNW1 (protein, UniProt Q13573 2-536, looked up)
# SNW domain-containing protein …: ALTSFLPAPTQLSQDQLEAEEKARSQRSRQTSLVSSRREPPPYGYRKGWIPRLLEDFGDGGAFPEIHVAQYPLDMGRKKKMSNALAIQVDSEGKIKYDAIARQGQSKDKVIYSKYTDLVPKEVMNADDPDLQRPDEEAIKEITEKTRVALEKSVSQKVAAAMPVRAADKLAPAQYIRYTPSQQGVAFNSGAKQRVIRMVEMQKDPMEPPRFKINKKIPRGPPSPPAPVMHSPSRKMTVKEQQEWKIPPCISNWKNAKGYTIPLDKRLAADGRGLQTVHINENFAKLAEALYIADRKAREAVEMRAQVERKMAQKEKEKHEEKLREMAQKARERRAGIKTHVEKEDGEARERDEIRHDRRKERQHDRNLSRAAPDKRSKLQRNENRDISEVIALGVPNPRTSNEVQYDQRLFNQSKGMDSGFAGGEDEIYNVYDQAWRGGKDMAQSIYRPSKNLDKDMYGDDLEARIKTNRFVPDKEFSGSDRRQRGREGPVQFEEDPFGLDKFLEEAKQHGGSKRPSDSSRPKEHEHEGKKRRKE
# B2: BCL6B (protein, UniProt Q8N143 1-479, looked up)
# B-cell CLL/lymphoma 6 member …: MGSPAAPEGALGYVREFTRHSSDVLGNLNELRLRGILTDVTLLVGGQPLRAHKAVLIACSGFFYSIFRGRAGVGVDVLSLPGGPEARGFAPLLDFMYTSRLRLSPATAPAVLAAATYLQMEHVVQACHRFIQASYEPLGISLRPLEAEPPTPPTAPPPGSPRRSEGHPDPPTESRSCSQGPPSPASPDPKACNWKKYKYIVLNSQASQAGSLVGERSSGQPCPQARLPSGDEASSSSSSSSSSSEEGPIPGPQSRLSPTAATVQFKCGAPASTPYLLTSQAQDTSGSPSERARPLPGSEFFSCQNCEAVAGCSSGLDSLVPGDEDKPYKCQLCRSSFRYKGNLASHRTVHTGEKPYHCSICGARFNRPANLKTHSRIHSGEKPYKCETCGSRFVQVAHLRAHVLIHTGEKPYPCPTCGTRFRHLQTLKSHVRIHTGEKPYHCDPCGLHFRHKSQLRLHLRQKHGAATNTKVHYHILGGP
# B3: SNAPC4 (protein, UniProt Q5SXM2 1-1469, looked up)
# snRNA-activating protein …: MDVDAEREKITQEIKELERILDPGSSGSHVEISESSLESDSEADSLPSEDLDPADPPISEEERWGEASNDEDDPKDKTLPEDPETCLQLNMVYQEVIQEKLAEANLLLAQNREQQEELMRDLAGSKGTKVKDGKSLPPSTYMGHFMKPYFKDKVTGVGPPANEDTREKAAQGIKAFEELLVTKWKNWEKALLRKSVVSDRLQRLLQPKLLKLEYLHQKQSKVSSELERQALEKQGREAEKEIQDINQLPEEALLGNRLDSHDWEKISNINFEGSRSAEEIRKFWQNSEHPSINKQEWSREEEERLQAIAAAHGHLEWQKIAEELGTSRSAFQCLQKFQQHNKALKRKEWTEEEDRMLTQLVQEMRVGSHIPYRRIVYYMEGRDSMQLIYRWTKSLDPGLKKGYWAPEEDAKLLQAVAKYGEQDWFKIREEVPGRSDAQCRDRYLRRLHFSLKKGRWNLKEEEQLIELIEKYGVGHWAKIASELPHRSGSQCLSKWKIMMGKKQGLRRRRRRARHSVRWSSTSSSGSSSGSSGGSSSSSSSSSEEDEPEQAQAGEGDRALLSPQYMVPDMDLWVPARQSTSQPWRGGAGAWLGGPAASLSPPKGSSASQGGSKEASTTAAAPGEETSPVQVPARAHGPVPRSAQASHSADTRPAGAEKQALEGGRRLLTVPVETVLRVLRANTAARSCTQKEQLRQPPLPTSSPGVSSGDSVARSHVQWLRHRATQSGQRRWRHALHRRLLNRRLLLAVTPWVGDVVVPCTQASQRPAVVQTQADGLREQLQQARLASTPVFTLFTQLFHIDTAGCLEVVRERKALPPRLPQAGARDPPVHLLQASSSAQSTPGHLFPNVPAQEASKSASHKGSRRLASSRVERTLPQASLLASTGPRPKPKTVSELLQEKRLQEARAREATRGPVVLPSQLLVSSSVILQPPLPHTPHGRPAPGPTVLNVPLSGPGAPAAAKPGTSGSWQEAGTSAKDKRLSTMQALPLAPVFSEAEGTAPAASQAPALGPGQISVSCPESGLGQSQAPAASRKQGLPEAPPFLPAAPSPTPLPVQPLSLTHIGGPHVATSVPLPVTWVLTAQGLLPVPVPAVVSLPRPAGTPGPAGLLATLLPPLTETRAAQGPRAPALSSSWQPPANMNREPEPSCRTDTPAPPTHALSQSPAEADGSVAFVPGEAQVAREIPEPRTSSHADPPEAEPPWSGRLPAFGGVIPATEPRGTPGSPSGTQEPRGPLGLEKLPLRQPGPEKGALDLEKPPLPQPGPEKGALDLGLLSQEGEAATQQWLGGQRGVRVPLLGSRLPYQPPALCSLRALSGLLLHKKALEHKATSLVVGGEAERPAGALQASLGLVRGQLQDNPAYLLLRARFLAAFTLPALLATLAPQGVRTTLSVPSRVGSESEDEDLLSELELADRDGQPGCTTATCPIQGAPDSGKCSASSCLDTSNDPDDLDVLRTRHARHTRKRRRLV
# B4: SOX10 (protein, UniProt P56693 1-466, looked up)
# Transcription factor SOX-10: MAEEQDLSEVELSPVGSEEPRCLSPGSAPSLGPDGGGGGSGLRASPGPGELGKVKKEQQDGEADDDKFPVCIREAVSQVLSGYDWTLVPMPVRVNGASKSKPHVKRPMNAFMVWAQAARRKLADQYPHLHNAELSKTLGKLWRLLNESDKRPFIEEAERLRMQHKKDHPDYKYQPRRRKNGKAAQGEAECPGGEAEQGGTAAIQAHYKSAHLDHRHPGEGSPMSDGNPEHPSGQSHGPPTPPTTPKTELQSGKADPKRDGRSMGEGGKPHIDFGNVDIGEISHEVMSNMETFDVAELDQYLPPNGHPGHVSSYSAAGYGLGSALAVASGHSAWISKPPGVALPTVSPPGVDAKAQVKTETAGPQGPPHYTDQPSTSQIAYTSLSLPHYGSAFPSISRPQFDYSDHQPSGPYYGHSGQASGLYSAFSYMGPSQRPLYTAISDPSPSGPQSHSPTHWEQPVYTTLSRP
# B5: SOX7 (protein, UniProt Q9BT81 1-388, looked up)
# Transcription factor SOX-7: MASLLGAYPWPEGLECPALDAELSDGQSPPAVPRPPGDKGSESRIRRPMNAFMVWAKDERKRLAVQNPDLHNAELSKMLGKSWKALTLSQKRPYVDEAERLRLQHMQDYPNYKYRPRRKKQAKRLCKRVDPGFLLSSLSRDQNALPEKRSGSRGALGEKEDRGEYSPGTALPSLRGCYHEGPAGGGGGGTPSSVDTYPYGLPTPPEMSPLDVLEPEQTFFSSPCQEEHGHPRRIPHLPGHPYSPEYAPSPLHCSHPLGSLALGQSPGVSMMSPVPGCPPSPAYYSPATYHPLHSNLQAHLGQLSPPPEHPGFDALDQLSQVELLGDMDRNEFDQYLNTPGHPDSATGAMALSGHVPVSQVTPTGPTETSLISVLADATATYYNSYSVS
# B6: SND1 (protein, UniProt Q7KZF4 2-910, looked up)
# Staphylococcal nuclease …: ASSAQSGGSSGGPAVPTVQRGIIKMVLSGCAIIVRGQPRGGPPPERQINLSNIRAGNLARRAAATQPDAKDTPDEPWAFPAREFLRKKLIGKEVCFTIENKTPQGREYGMIYLGKDTNGENIAESLVAEGLATRREGMRANNPEQNRLSECEEQAKAAKKGMWSEGNGSHTIRDLKYTIENPRHFVDSHHQKPVNAIIEHVRDGSVVRALLLPDYYLVTVMLSGIKCPTFRREADGSETPEPFAAEAKFFTESRLLQRDVQIILESCHNQNILGTILHPNGNITELLLKEGFARCVDWSIAVYTRGAEKLRAAERFAKERRLRIWRDYVAPTANLDQKDKQFVAKVMQVLNADAIVVKLNSGDYKTIHLSSIRPPRLEGENTQDKNKKLRPLYDIPYMFEAREFLRKKLIGKKVNVTVDYIRPASPATETVPAFSERTCATVTIGGINIAEALVSKGLATVIRYRQDDDQRSSHYDELLAAEARAIKNGKGLHSKKEVPIHRVADISGDTQKAKQFLPFLQRAGRSEAVVEYVFSGSRLKLYLPKETCLITFLLAGIECPRGARNLPGLVQEGEPFSEEATLFTKELVLQREVEVEVESMDKAGNFIGWLHIDGANLSVLLVEHALSKVHFTAERSSYYKSLLSAEEAAKQKKEKVWAHYEEQPVEEVMPVLEEKERSASYKPVFVTEITDDLHFYVQDVETGTQLEKLMENMRNDIASHPPVEGSYAPRRGEFCIAKFVDGEWYRARVEKVESPAKIHVFYIDYGNREVLPSTRLGTLSPAFSTRVLPAQATEYAFAFIQVPQDDDARTDAVDSVVRDIQNTQCLLNVEHLSAGCPHVTLQFADSKGDVGLGLVKEGLVMVEVRKEKQFQKVITEYLNAQESAKSARLNLWRYGDFRADDADEFGYSR
# Test system: HEK293FT cells transfected with TF library
# Experiment: Screening of TF condensates based on fluorescent puncta
# Type: cell-based
# Conditions: Figure 1B numerical data; TF library screen, one value per transcriptional factor
# Procedure, shortened: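 Condensate formation is scored as Alexa 488-labelled puncta after Flag- or GAL4-tag immunostaining of fixed HEK293FT cells expressing individual TFs, with a 12 h glucose-free or glucose-containing culture preceding fixation.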
row,Molecule,Z score of condensed fraction
1,B1,-0.7186
2,B2,-0.2442
3,B3,-0.9989
4,B4,-0.1457
5,B5,-0.1184
6,B6,0.9266
